Patent publication US11781164B2, “Demethylation of reticuline and derivatives thereof with fungal cytochrome P450” (priority 2017, dated 2023)

Legend:
thebaine [1] = assay: Conversion of thebaine by demethylases heterologously expressed in Aspergillus nidulans; details: 0.5 mM thebaine, Minimal Medium pH 7, 84 hours; supernatant, LC-MS
thebaine [2] = assay: Bioconversion of thebaine (N-demethylation to northebaine) by S. cerevisiae expressing cytochrome P450s and CPRs, LC-MS; details: 0.5 mM thebaine
oripavine = assay: Bioconversion of oripavine (N-demethylation to nororipavine) by S. cerevisiae expressing cytochrome P450s and CPRs, LC-MS; details: 0.5 mM oripavine, pH 7, co-expressed with Cel_CPR_co, 72 h
thebaine [3] = assay: In planta conversion of thebaine by transient expression of demethylases and CPRs in Nicotiana benthamiana leaves; details: co-expressed with CPR_DN10898_c0_g1_i1_co or Cel_CPR_co; leaves re-infiltrated with 0.5 mM thebaine after 4 days, measured 1 day after
[4] = pH 7, co-expressed with Cel_CPR_co, 72 h

B1: P450_DN12791_co: P450_DN_12791 from T. piriforme, codon optimized for S. cerevisiae (pEV32227) (protein)
chain: MAILQNLVLQSDQRHLGVVTAAVFLSAYALYRHESKKELGNECPTVPYTNPMFGSTDEYRKNPAAFVEKWSAALGPVFRVHIFGRMQTVVSGRYVREVLFNDNFSFVEGIRTRFDLRLLTGIPNSHLNDKDVREVVVKSLTAQMKKYTPRAVHYLSVGLQEALGDLKDPRTLDNLFLTVQNMVAKASASIFVGEELCNNIELVDTFKHVTSDIGSEIRLDNTWLEFFKTINQIRMWYVGKHSPRVTKHRRQLIQAMAPEIDRRLQGLAGNDPSWTRPEDILQEIMENYPSPSTVPADIYTYYANWMIVLIFASVHTTTEHATIVLYRLLQQPELIDELLQEQKEALGQGTVFTGEVIRKLVKLDSVCRESLRIKNEYFGLPHRNMSHENISLSNGVVIKPGDNVMLNVWTNHHDSDLQKDVHGNHDKFEPFRYVNADRPATKIGDDYLIFGEGKHACPGRWFALQEIKTIVSVLIRDYTLTPCGPIVFPSGTSTGIPSGEVTIQRKSEV
modifications: codon-optimized; Thamnostylum piriforme
Thebaine [1]
  northebaine production in Aspergillus nidulans vs vector control: production of northebaine was achieved
Thebaine [2]; pH 7, co-expressed with Cel_CPR_co, 72 h, no significant difference between codon optimized and non-codon optimized versions
  thebaine N-demethylation activity: lower
oripavine
  nororipavine titers: highest nororipavine titers

B2: Lr_P450_co: P450 from Lichtheimia ramosa, codon optimized for S. cerevisiae (protein, listed as Lichtheimia ramosa)
chain: MTEIKEHIYRYRHYIGVAAAVALVCQQVYYRIFRIPKNLRHIPAIPYGQQLKALRSDEALTSRTKRLVFPLLSKCNGVYLNRMPFKWTIYVADPEIARAILFKPEFGHKTRSVTDSLDKNSSLFEFVGDDNIAIVNGHEWKEQRKIMNPAFHRATPVGMFGSLMPKVFRLVEEQPTLPALDLMQKLTLDALGKSVFGFEFGALDDPDSVWVKTYRQVFDSFTDVFSLVFPRLDPIYRYFSAKHREQYNAVYKLIDLLDGMADKKRSMLQDASNSDIKDVPDHEKDLLQLMLEAELRGEGSWTKRELRHNMAIFFVAGQDTTSHALTFCLYLLAKNQDIQKKAREEILNVFGDEPKDVFPTLEDCKKLNYLDMVIKESMRIYPPANDVLARDVNEDLNVKGVFIPKGSMVSVDIHALHHRPDLWHEPDKFNPDRFLPGGEHDSHVGVTYAPFSSGSRQCIALKFATMQQRVVLSMLLRKYEWELPKDSKHKDSIQFQIPFNIAPKDLELTFHKRY
modifications: codon-optimized
Thebaine [1]
  northebaine production in Aspergillus nidulans vs vector control: not apparent
Thebaine [3]
  northebaine levels in N. benthamiana leaves vs negative P19 control: clear increase in northebaine
Thebaine [2]; pH 7, 72 h, co-expressed with CPR_DN5866_c0_g1_i1_Cd9, CPR_DN10898_c0_g1_i1_1A or Cel_CPR_co (at least one of the tested CPRs)
  activity towards thebaine, converting it to northebaine: performing the best conversion of thebaine into northebaine
Thebaine [2]; [4]
  northebaine titer: more than 7 mg/L
  northebaine titers higher compared to P450_DN15259_co: 2 fold
